Assay results as given in patent publication US20220064289A1 (SHENZHEN BEIKE BIOTECHNOLOGY, published 2022).

Molecular target: T1, CD19 antigen (UniProt P15391 20-556, limits assumed)
T1 construct: whole, on cells; the cell lines are human
T1 sequence (looked up): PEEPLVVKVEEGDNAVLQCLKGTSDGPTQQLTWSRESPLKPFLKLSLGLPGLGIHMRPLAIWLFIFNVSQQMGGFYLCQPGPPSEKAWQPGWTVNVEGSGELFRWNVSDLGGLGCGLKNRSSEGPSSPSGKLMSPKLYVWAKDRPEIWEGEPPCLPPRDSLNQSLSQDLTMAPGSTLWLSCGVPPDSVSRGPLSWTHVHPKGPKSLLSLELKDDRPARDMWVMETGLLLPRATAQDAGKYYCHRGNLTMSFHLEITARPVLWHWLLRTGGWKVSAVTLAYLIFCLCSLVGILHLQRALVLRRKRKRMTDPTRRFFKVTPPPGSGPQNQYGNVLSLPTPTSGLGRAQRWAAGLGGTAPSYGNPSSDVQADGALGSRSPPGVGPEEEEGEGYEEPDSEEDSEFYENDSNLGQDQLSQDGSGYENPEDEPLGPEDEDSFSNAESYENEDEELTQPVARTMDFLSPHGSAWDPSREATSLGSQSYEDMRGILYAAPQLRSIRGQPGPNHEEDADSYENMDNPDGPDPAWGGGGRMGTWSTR
Experiment: flow cytometry on BV173 cells, detected with FITC-labeled Protein L
Description: 1. T cell and BV173 cell experimental group: 5 μg of multi-function proteins TiTE-15, 16 were added to BV173 cells and 3×10\hat{ }5 T cells derived from mononuclear cell-rich white membrane layer of normal human peripheral blood by density gradient centrifugation, and stimulated by OKT3 (50 ng/mL) and IL2 (300 IU/mL) for 14 days, and incubated on ice for 30 min. The supernatant was removed by centrifugation and the cells were re-suspended in 200 μL of PBS. 2 μL of FITC-Labeled recombinant Protein L (ACRO Biosystem, RPL-PF141) was added and incubated on ice for 30 min. The supernatant was removed by centrifugation, washed twice in 500 μL PBS, and re-suspended in 200 μL of PBS.
T cell and BV173 cell negative control group: 3*10E5 T cells respectively (PBMC stimulated with 50 ng/mL OKT3, 300 IU/mL IL2) were mixed with BV173 cells (ATCC) first, and 2 μL APC Mouse anti-Human CD279 (BD, Cat. No. 558694) was added to the cells and incubated on ice for 30 min. The supernatant was removed by centrifugation, and the cells were re-suspended in 200 μL of PBS as a negative control.

binding result: binds
B1: multifunctional protein TiTE-15 (other)
chain: DIQMTQTTSSLSASLGDRVTISCRASQDISKYLNWYQQKPDGTVKLLIYHTSRLHSGVPSRFSGSGSGTDYSLTISNLEQEDIATYFCQQGNTLPYTFGGGTKLEITGSTSGSGKPGSGEGSTKGEVKLQESGPGLVAPSQSLSVTCTVSGVSLPDYGVSWIRQPPRKGLEWLGVIWGSETTYYNSALKSRLTIIKDNSKSQVFLKMNSLQTDDTAIYYCAKHYYYGGSYAMDYWGQGTSVTVSSGGGGSITCPPPMSVEHADIWVKSYSLYSRERYICNSGFKRKAGTSSLTECVLNKATNVAHWTTPSLKCIRDPALVHQSGGSGGGGSGGGSGGGGSLQDIQMTQSPSSLSASVGDRVTITCRASQDIRNYLNWYQQKPGKAPKLLIYYTSRLESGVPSRFSGSGSGTDYTLTISSLQPEDFATYYCQQGNTLPWTFGQGTKVEIKGGGGSGGGGSGGGGSEVQLVESGGGLVQPGGSLRLSCAASGYSFTGYTMNWVRQAPGKGLEWVALINPYKGVSTYNQKFKDRFTISVDKSKNTAYLQMNSLRAEDTAVYYCARSGYYGDSDWYFDVWGQGTLVTV
notes: Main peptide chain alone, no co-peptide chain
